Laboratory results as given in PMC11090809.

Target: empty AAVHSC-15 capsid (OXBS1-E fraction of AAV-OXBS1) (AAVHSC-15 (Clade F adeno-associated virus))
Experiment: charge detection mass spectrometry (CDMS); OXBS1-E fraction sprayed into a CDMS instrument (Megadalton Solutions); single ions trapped, charge detected, masses calculated; n = 1

Work on “empty AAVHSC-15 capsid (OXBS1-E fraction of AAV-OXBS1) (complex)” yielded a % relative abundance of the dimer peak of 20% and a stoichiometry N of 2.
